From publication PMC9636508, “Reciprocal interactions among Cobll1, PACSIN2, and SH3BP1 regulate drug resistance in chronic myeloid leukemia” (Cancer Medicine, 2022)

Tests used:
[1] = target: T1, Cobll1-NT-f (N-terminal region of Cobll1, residues 1-410) (UniProt Q53SF7 1-410); assay: SPR; PACSIN2 SH3 domain immobilised on a PEG chip by amine coupling (Reichert SR7500DC); 25°C; PBS (10 mM KH2PO4, 137 mM NaCl, 2.7 mM KCl, pH 7.4); 3 min association, 10 min dissociation; details: both partners purified
T1 construct: Cobll1 N-terminal region, residues 1-410, cloned into pGEX-4T-1; source: E. coli BL21-CodonPlus (DE3), purified (GST column, tag cleavage, ion exchange, Superdex)
T1 sequence (Q53SF7 1-410): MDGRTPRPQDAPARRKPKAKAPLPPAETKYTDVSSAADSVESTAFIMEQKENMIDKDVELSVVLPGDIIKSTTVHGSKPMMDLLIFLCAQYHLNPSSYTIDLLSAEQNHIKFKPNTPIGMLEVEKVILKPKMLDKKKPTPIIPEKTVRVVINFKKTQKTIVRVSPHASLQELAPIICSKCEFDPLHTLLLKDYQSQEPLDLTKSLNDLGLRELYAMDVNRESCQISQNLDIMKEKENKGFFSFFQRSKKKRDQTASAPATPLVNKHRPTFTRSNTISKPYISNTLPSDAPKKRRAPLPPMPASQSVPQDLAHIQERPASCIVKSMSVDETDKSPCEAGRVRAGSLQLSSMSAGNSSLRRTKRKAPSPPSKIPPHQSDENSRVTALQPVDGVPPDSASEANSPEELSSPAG

[2] = target: T2, SH3BP1-CT (C-terminal region of SH3BP1, residues 541-701) (UniProt Q9Y3L3 541-701); assay: as above; details: both partners purified
T2 construct: SH3BP1 C-terminal region containing all proline-rich motifs, residues 541-701, cloned into pET-21a; also called SH3PB1-CT; source: E. coli BL21-CodonPlus (DE3), purified (Ni column, Superdex 75)
T2 sequence (looked up): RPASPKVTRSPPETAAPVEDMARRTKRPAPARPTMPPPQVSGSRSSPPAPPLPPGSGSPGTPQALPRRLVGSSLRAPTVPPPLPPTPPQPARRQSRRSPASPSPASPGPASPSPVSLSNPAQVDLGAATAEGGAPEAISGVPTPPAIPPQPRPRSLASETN

B1: PACSIN2 SH3 domain (residues 430-486), purified (domain or fragment)
chain: not shown
notes: 15N- or 15N,13C-labelled for NMR, unlabelled for SPR; source: E. coli BL21-CodonPlus (DE3), purified (GST column, tag cleavage, ion exchange, Superdex)
B1 showed a Kd [1] of 25.8 nM and a Kd [2] of 2200 nM.
